According to patent US20180335433A1, “COMPOSITIONS TARGETING PKC-THETA AND USES AND METHODS OF TREATING PKC-THETA PATHOLOGIES, ADVERSE IMMUNE RESPONSES AND DISEASES” (La Jolla Institute for Allergy and Immunology, priority 2011, published 2018):

Biological target: CD28, endogenous in primary mouse CD4+ T cells (mouse) (UniProt P31041)
Assay: cell-based or functional assay

Chain of CD28, endogenous in primary mouse CD4+ T cells (mouse) (P31041 20-218): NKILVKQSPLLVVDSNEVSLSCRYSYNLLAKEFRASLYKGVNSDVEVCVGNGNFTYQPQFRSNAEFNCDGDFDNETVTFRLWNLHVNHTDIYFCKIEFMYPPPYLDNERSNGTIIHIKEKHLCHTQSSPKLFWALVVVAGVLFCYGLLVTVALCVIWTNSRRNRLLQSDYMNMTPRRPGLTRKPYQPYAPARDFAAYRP

Substance: Myc-tagged PKCθ V3 domain (aa 282-379 of human PKCθ, N-terminal Myc tag) (from UniProt Q04759 282-379)
- Treg (FoxP3+) differentiation: 4 fold
- inhibition of Th2 differentiation: 75%
- inhibition of Th17 differentiation: 75%
